Source: patent US6828304B1, “Peptides for treatment of cancer” (Dabur Research Foundation, priority 2000, dated 2004)
Peptide text beside a SMILES is read from it. * marks the point of attachment. Palmitoyl = CCCCCCCCCCCCCCCC(=O)*; Myristoyl = CCCCCCCCCCCCCC(=O)*; Octanoyl = CCCCCCCC(=O)*; Butyryl = CCCC(=O)*

Legend:
[1] = test system: HeP2 (Laryngeal) tumor cells; test: MTT cytotoxicity assay, HeP2 cells; type: cell-based; conditions: 48 hours
Description: (§1) The cytotoxic effect of Lipo peptide analogs, DT-A1 (SEQ ID NO: 2), DT-B1 (SEQ ID NO: 3), DT-01 (SEQ ID NO: 4), DT-M1 (SEQ ID NO: 5) and DT-P1 (SEQ ID NO: 6) was studied by MTT assay which is based on the principle of uptake of MTT [3-[4,5-dimethylthiazol-2-yl]-2,5-diphenyl tetrazolium bromide], a tetrazolium salt by the metabolically active cells where it is metabolized by active mitochondria into a blue colored formazan product which can be read spectrophotometrically. Briefly, tumor cells PTC (primary colon) KB (Oral squamous), U87MG (Glioblastoma), HBL100 (Breast), HeP2 (Laryngeal), ECV304 (Endothelial), PA-1 (Ovary) and L132 (Lung) were incubated with the peptide analogs for 48 hours at 37° C. in a 96-well culture plate, followed by the addition of 100 μg MTT and _further incubation of 1 hour. The formazan crystals formed inside the cells were dissolved with a detergent comprising 10% Sodium dodecyl sulfate and 0.01 N HCl and optical density read on a multiscan ELISA reader. The optical density was directly proportional to the number of proliferating and metabolically active cells.

[2] = test system: HBL100 (Breast) tumor cells; test: MTT cytotoxicity assay, HBL100 cells; type: cell-based; conditions: 48 hours
Description: as §1

L132 (Lung) tumor cells = test: MTT cytotoxicity assay, L132 cells; type: cell-based; conditions: 48 hours
Description: as §1

[3] = test system: PTC (primary colon) tumor cells; test: MTT cytotoxicity assay, PTC cells; type: cell-based, human; conditions: 48 hours
Description: as §1

[4] = test system: ECV304 (Endothelial) cells; test: MTT cytotoxicity assay, ECV304 cells; type: cell-based; conditions: 48 hours
Description: as §1

[5] = test system: U87MG (Glioblastoma) tumor cells; test: MTT cytotoxicity assay, U87MG cells; type: cell-based; conditions: 48 hours
Description: as §1

[6] = test system: KB (Oral squamous) tumor cells; test: MTT cytotoxicity assay, KB cells; type: cell-based; conditions: 48 hours
Description: as §1

PA-1 (Ovary) tumor cells = test: MTT cytotoxicity assay, PA-1 cells; type: cell-based; conditions: 48 hours
Description: as §1

[7] = test system: human colon adenocarcinoma (PTC) xenografts; test: Antitumor activity in PTC xenografts in nude mice; type: in vivo
Protocol: The antitumor activity of DT-B1 (SEQ ID NO: 3) was studied in human colon adenocarcinoma (PTC) xenografts in nude mice. PTC tumor xenografts were grown in Balb/c a thymic mice by subcutaneous inoculation of a single cell suspension of PTC cells (15×10^6 cells/100 EL). The tumor bearing animals were divided into 2 groups of three animals each including one group comprising untreated control animals. Treatment with DT-B1 was initiated when the average tumor volumes, as measured using a vernier caliper, were between 1.3 cm^3. Solutions of DT-B1 was prepared at a concentration of 126 μg/ml and intravenously administered to the assigned group of tumor bearing animals at a dose of 12.6 μg/100 μL twice a day so that the total dose of 25.2 μg/day was administered to each animal. The treatment was continued for a period of 14 days.
The antitumor activity of the compounds was monitored by measuring tumor volumes every fourth day using the formula W*W*L*0.4 (W=smaller diameter, L=larger diameter). The percentage inhibition of tumor growth was calculated using the formula (1-tumor volume-treated/tumor volume-control)* 100.

| Compound | Percentage cytotoxicity ([1]; 1 nM) | Percentage cytotoxicity ([1]; 10 nM) | Percentage cytotoxicity ([1]; 100 nM) | Percentage cytotoxicity ([1]; 1 μM) | Percentage cytotoxicity ([2]; 1 nM) | Percentage cytotoxicity ([2]; 10 nM) | Percentage cytotoxicity ([2]; 100 nM) | Percentage cytotoxicity (L132 (Lung) tumor cells; 1 nM) | Percentage cytotoxicity (L132 (Lung) tumor cells; 10 nM) | Percentage cytotoxicity (L132 (Lung) tumor cells; 100 nM) | Percentage cytotoxicity (L132 (Lung) tumor cells; 1 μM) | Percentage cytotoxicity ([4]; 1 nM) | Percentage cytotoxicity ([4]; 10 nM) | Percentage cytotoxicity ([4]; 100 nM) | Percentage cytotoxicity ([4]; 1 μM) | Percentage cytotoxicity ([5]; 1 nM) | Percentage cytotoxicity ([5]; 10 nM) | Percentage cytotoxicity ([5]; 100 nM) | Percentage cytotoxicity ([5]; 1 μM) | Percentage cytotoxicity ([6]; 1 nM) | also measured |
| --- | --- | --- | --- | --- | --- | --- | --- | --- | --- | --- | --- | --- | --- | --- | --- | --- | --- | --- | --- | --- | --- |
| n-Octanoyl-Leu-Met-Tyr-Pro-Thr-Tyr-Leu-Lys-OH (Octanoyl-LMYPTYLK-OH) [DT-O1] | 8.6 ± 2.5% | 22.9 ± 1.2% | 17.9 ± 2.3% | 18.8 ± 4.2% | 30.0 ± 1.4% | 33.7 ± 2.8% | 32.8 ± 2.8% | 19.4 ± 2.9% | 25.9 ± 1.7% | 14.9 ± 2.5% | 7.9 ± 2.3% | 16.9 ± 1.3% | 27.9 ± 3.2% | 24.9 ± 2.4% | 23.9 ± 2.2% | 37.0 ± 1.6% | 38.7 ± 1.7% | 28.6 ± 1.2% | 21.9 ± 1.5% | 21.0 ± 0.6% | Percentage cytotoxicity ([3]; 1 nM): 28 ± 5.4%; Percentage cytotoxicity ([3]; 10 nM): 32 ± 0.3%; Percentage cytotoxicity ([3]; 100 nM): 33 ± 3.2%; Percentage cytotoxicity ([3]; 1 μM): 29 ± 5.5%; Percentage cytotoxicity ([6]; 10 nM): 34.9 ± 3.1%; Percentage cytotoxicity ([6]; 100 nM): 26.9 ± 2.2%; Percentage cytotoxicity ([6]; 1 μM): 23.9 ± 1.3%; Percentage cytotoxicity (PA-1 (Ovary) tumor cells; 1 nM): 26.0 ± 3.9%; Percentage cytotoxicity (PA-1 (Ovary) tumor cells; 10 nM): 37.8 ± 2.2%; Percentage cytotoxicity (PA-1 (Ovary) tumor cells; 100 nM): 22.6 ± 3.6%; Percentage cytotoxicity (PA-1 (Ovary) tumor cells; 1 μM): 6.0 ± 1.4% |
| CCCCCCCCCCCCCC(=O)N[C@@H](CC(C)C)C(=O)N[C@@H](CCSC)C(=O)N[C@@H](Cc1ccc(O)cc1)C(=O)N1CCC[C@H]1C(=O)N[C@H](C(=O)N[C@@H](Cc1ccc(O)cc1)C(=O)N[C@@H](CC(C)C)C(=O)N[C@@H](CCCCN)C(=O)O)[C@@H](C)O [DT-M1, Myristoyl-Leu-Met-Tyr-Pro-Thr-Tyr-Leu-Lys-OH] (Myristoyl-LMYPTYLK-OH) | 15.8 ± 2.2% | 18.7 ± 2.2% | 22.9 ± 1.3% | 12.9 ± 1.2% | 21.9 ± 2.4% | 31.6 ± 3.8% | 30.4 ± 2.4% | 10.6 ± 1.9% | 26.7 ± 1.1% | 16.8 ± 2.1% | 9.6 ± 2.4% | 21.9 ± 1.6% | 16.9 ± 3.1% | 22.9 ± 1.0% | 17.7 ± 1.2% | 29.4 ± 1.2% | 44.9 ± 2.7% | 32.2 ± 2.2% | 5.0 ± 2.5% | 21.0 ± 26% | Percentage cytotoxicity ([2]; 1 μM): 29.6 ± 2.3%; Percentage cytotoxicity ([3]; 1 nM): 26 ± 0.5%; Percentage cytotoxicity ([3]; 10 nM): 25 ± 3.6%; Percentage cytotoxicity ([3]; 100 nM): 31 ± 4.6%; Percentage cytotoxicity ([3]; 1 μM): 30 ± 3.9%; Percentage cytotoxicity ([6]; 10 nM): 23.9 ± 3.1%; Percentage cytotoxicity ([6]; 100 nM): 19.0 ± 3.2%; Percentage cytotoxicity ([6]; 1 μM): 12.9 ± 1.6%; Percentage cytotoxicity (PA-1 (Ovary) tumor cells; 1 nM): 27.5 ± 2.9%; Percentage cytotoxicity (PA-1 (Ovary) tumor cells; 10 nM): 42.0 ± 2.2%; Percentage cytotoxicity (PA-1 (Ovary) tumor cells; 100 nM): 25.9 ± 3.3%; Percentage cytotoxicity (PA-1 (Ovary) tumor cells; 1 μM): 15.7 ± 1.2% |
| Ac-LMYPTYLK-OH [DT-A1, Acetyl-Leu-Met-Tyr-Pro-Thr-Tyr-Leu-Lys-OH] | 14.9 ± 2.2% | 39.9 ± 1.8% | 21.9 ± 2.7% | 19.7 ± 1.1% | 19.9 ± 3.5% | 31.9 ± 3.5% | 30.5 ± 1.3% | 13.9 ± 2.9% | 26.4 ± 3.2% | 14.6 ± 3.1% | 12.9 ± 2.4% | 8.0 ± 2.5% | 16.5 ± 3.4% | 22.0 ± 2.3% | 10.8 ± 3.4% | 10.4 ± 1.3% | 29.9 ± 2.2% | 26.9 ± 1.5% | 21.9 ± 1.4% | 25.9 ± 1.6% | Percentage cytotoxicity ([2]; 1 μM): 28.9 ± 1.2%; Percentage cytotoxicity ([6]; 10 nM): 31.0 ± 2.1%; Percentage cytotoxicity ([6]; 100 nM): 26.9 ± 2.1%; Percentage cytotoxicity ([6]; 1 μM): 21.0 ± 2.3%; Percentage cytotoxicity (PA-1 (Ovary) tumor cells; 1 nM): 21.9 ± 1.5%; Percentage cytotoxicity (PA-1 (Ovary) tumor cells; 10 nM): 24.9 ± 2.6%; Percentage cytotoxicity (PA-1 (Ovary) tumor cells; 100 nM): 18.5 ± 2.3%; Percentage cytotoxicity (PA-1 (Ovary) tumor cells; 1 μM): 6.9 ± 3.2% |
| n-Butanoyl-Leu-Met-Tyr-Pro-Thr-Tyr-Leu-Lys-OH (Butyryl-LMYPTYLK-OH) [DT-B1] | 8.7 ± 1.5% | 22.9 ± 1.6% | 14.9 ± 5.3% | 12.9 ± 4.4% | 33.0 ± 1.5% | 34.8 ± 1.8% | 33.9 ± 2.8% | 13.9 ± 1.9% | 26.8 ± 1.9% | 10.7 ± 2.6% | 11.8 ± 2.3% | 18.7 ± 5.3% | 19.9 ± 4.2% | 31.9 ± 2.8% | 25.8 ± 2.3% | 33.9 ± 0.6% | 39.7 ± 2.7% | 30.7 ± 1.7% | 20.6 ± 1.7% | 21.9 ± 0.5% | Percentage cytotoxicity ([2]; 1 μM): 32.8 ± 2.2%; Percentage cytotoxicity ([3]; 1 nM): 36 ± 1.0%; Percentage cytotoxicity ([3]; 10 nM): 44 ± 1.3%; Percentage cytotoxicity ([3]; 100 nM): 48 ± 1.7%; Percentage cytotoxicity ([3]; 1 μM): 31 ± 1.5%; percentage inhibition of tumor growth as compared to controls ([7]; day 20, intravenous 12.6 μg twice a day (25.2 μg/day) for 14 days, PTC xenografts in nude mice): 95.85%; antitumor activity on PTC xenografts (in words) ([7]; intravenous 25.2 μg/day for 14 days, tumor kinetics till day 20): significant antitumor activity; Percentage cytotoxicity ([6]; 10 nM): 25.9 ± 4.1%; Percentage cytotoxicity ([6]; 100 nM): 18.9 ± 3.2%; Percentage cytotoxicity ([6]; 1 μM): 14.8 ± 2.3%; Percentage cytotoxicity (PA-1 (Ovary) tumor cells; 1 nM): 43.9 ± 2.9%; Percentage cytotoxicity (PA-1 (Ovary) tumor cells; 10 nM): 45.8 ± 1.2%; Percentage cytotoxicity (PA-1 (Ovary) tumor cells; 100 nM): 38.5 ± 1.6%; Percentage cytotoxicity (PA-1 (Ovary) tumor cells; 1 μM): 33.7 ± 1.6% |
| Palmitoyl-Leu-Met-Tyr-Pro-Thr-Tyr-Leu-Lys-OH (Palmitoyl-LMYPTYLK-OH) [DT-P1] | 13.9 ± 1.2% | 24.9 ± 2.8% | 28.9 ± 1.7% | 14.9 ± 1.3% | 25.7 ± 2.5% | 34.9 ± 3.6% | 33.3 ± 1.4% | 10.9 ± 1.9% | 29.0 ± 1.2% | 19.6 ± 1.1% | 17.8 ± 2.2% | 18.8 ± 2.6% | 19.9 ± 3.4% | 31.9 ± 1.3% | 25.9 ± 1.4% | 9.6 ± 1.8% | 34.0 ± 2.6% | 32.9 ± 2.5% | 18.4 ± 2.4% | 21.9 ± 2.6% | Percentage cytotoxicity ([2]; 1 μM): 28.9 ± 1.3%; Percentage cytotoxicity ([3]; 1 nM): 27 ± 3.1%; Percentage cytotoxicity ([3]; 10 nM): 21 ± 1.2%; Percentage cytotoxicity ([3]; 100 nM): 33 ± 1.1%; Percentage cytotoxicity ([3]; 1 μM): 31 ± 3.1%; Percentage cytotoxicity ([6]; 10 nM): 32.0 ± 2.1%; Percentage cytotoxicity ([6]; 100 nM): 23.0 ± 2.2%; Percentage cytotoxicity ([6]; 1 μM): 18.0 ± 2.6%; Percentage cytotoxicity (PA-1 (Ovary) tumor cells; 1 nM): 20.5 ± 1.9%; Percentage cytotoxicity (PA-1 (Ovary) tumor cells; 10 nM): 21.9 ± 2.2%; Percentage cytotoxicity (PA-1 (Ovary) tumor cells; 100 nM): 25.6 ± 3.3%; Percentage cytotoxicity (PA-1 (Ovary) tumor cells; 1 μM): 21.7 ± 2.2% |
